Source: patent publication US6685944
Read-outs that look alike come from different tables or passages of the source.

Legend:
[1] = target: HLA-A2.1 on TAP-deficient T2 cells (human); assay: T2 cell HLA-A2.1 stabilisation assay, flow cytometry with BB7.2
[2] = target: HLA-A2.1 on TAP-deficient T2 cells (human); conditions: remark: other sources report otherwise

Binder | FI0.5 [1] [µM] | FI0.5 [2] [µM]
DLMGYIPVV (modifications not checked) [C7A2-8V peptide] | 15 | 
DLMGYIPLV (modifications not checked) [wild-type C7A2 peptide (C7A2-WT)] |  | 10
